Experimental data published in US20190040138A1.

Target: PD-1 antigen stably expressed on the surface of BB007 cells (UniProt Q15116)
Assay: flow cytometry on BB007 cells; control, printed under the column 0 nM

Chain of PD-1 antigen stably expressed on the surface of BB007 cells (Q15116 25-288 limits assumed): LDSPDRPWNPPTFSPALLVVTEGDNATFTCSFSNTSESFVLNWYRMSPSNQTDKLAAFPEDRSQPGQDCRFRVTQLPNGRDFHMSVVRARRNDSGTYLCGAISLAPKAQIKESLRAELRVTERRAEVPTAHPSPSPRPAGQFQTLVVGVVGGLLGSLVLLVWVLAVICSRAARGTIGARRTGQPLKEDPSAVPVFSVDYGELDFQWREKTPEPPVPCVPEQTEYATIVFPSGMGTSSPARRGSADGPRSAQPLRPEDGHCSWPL

fluorescence intensity: 7.4
Substance: hIgG (antibody)
